Measured values: publication PMC5653825, “Arrhythmogenic cardiomyopathy related DSG2 mutations affect desmosomal cadherin binding kinetics” (Scientific Reports, 2017)

Experiments:
Dsg2 (Homo sapiens) = Dsg2 (Homo sapiens) (UniProt Q14126); assay: sedimentation equilibrium AUC; details: cited from earlier work
[1] = molecular target: the molecule itself; assay: AFM single molecule force spectroscopy; Dsg2 EC1-4 covalently immobilised on both the AFM tip (long PEG linker) and the gold substrate; calcium buffer (2 mM CaCl2, 10 mM HEPES, 150 mM NaCl, pH 7.4); pulling velocities 200 to 5,000 nm s^-1; k- and x from the Evans and Ritchie model, Kd and k+ from the free energy by Jarzynski's equality; monomer to homodimer

Chain of Dsg2 (Q14126 50-609): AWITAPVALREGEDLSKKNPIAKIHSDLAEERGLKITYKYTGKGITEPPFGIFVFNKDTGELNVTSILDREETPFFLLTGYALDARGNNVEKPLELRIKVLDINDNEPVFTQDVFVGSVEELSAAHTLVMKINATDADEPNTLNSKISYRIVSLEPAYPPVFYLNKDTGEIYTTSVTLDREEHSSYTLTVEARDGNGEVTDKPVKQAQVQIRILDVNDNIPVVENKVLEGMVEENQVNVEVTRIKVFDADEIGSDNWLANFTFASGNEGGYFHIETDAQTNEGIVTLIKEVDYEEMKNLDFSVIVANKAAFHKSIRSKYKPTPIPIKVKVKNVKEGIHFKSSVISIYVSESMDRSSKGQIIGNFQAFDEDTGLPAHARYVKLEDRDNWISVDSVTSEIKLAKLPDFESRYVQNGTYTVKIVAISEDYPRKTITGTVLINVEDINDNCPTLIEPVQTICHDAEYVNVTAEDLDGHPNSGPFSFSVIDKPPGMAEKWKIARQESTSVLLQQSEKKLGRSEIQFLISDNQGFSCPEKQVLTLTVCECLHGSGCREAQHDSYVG

Molecule | Kd (Dsg2 (Homo sapiens)) [µM] | Kd [1] [µM] | bond lifetime tau [1] [s] | koff [1] [s⁻¹] | kon [1] [M⁻¹ s⁻¹]
Dsg2 (from UniProt Q14126) | 433 | – | – | – | –
Desmoglein-2 (Dsg2) p.V343I (p.V392I), recombinant extracellular cadherin domains 1-4 (EC1-4) (domain or fragment, thiol of the unique cysteine C447 (C496) covalently coupled to the maleimide of a cross-linker (maleimide-PEG-succinimidyl valerate 3,400 on the cantilever; NHS 3-maleimidopropionate on the gold substrate)) AWITAPVALREGEDLSKKNPIAKIHSDLAEERGLKITYKYTGKGITEPPFGIFVFNKDTGELNVTSILDREETPFFLLTGYALDARGNNVEKPLELRIKVLDINDNEPVFTQDVFVGSVEELSAAHTLVMKINATDADEPNTLNSKISYRIVSLEPAYPPVFYLNKDTGEIYTTSVTLDREEHSSYTLTVEARDGNGEVTDKPVKQAQVQIRILDVNDNIPVVENKVLEGMVEENQVNVEVTRIKVFDADEIGSDNWLANFTFASGNEGGYFHIETDAQTNEGIVTLIKEVDYEEMKNLDFSVIVANKAAFHKSIRSKYKPTPIPIKVKVKNVKEGIHFKSSIISIYVSESMDRSSKGQIIGNFQAFDEDTGLPAHARYVKLEDRDNWISVDSVTSEIKLAKLPDFESRYVQNGTYTVKIVAISEDYPRKTITGTVLINVEDINDNCPTLIEPV | – | 1010 | 1.73 | 0.58 | 573
Desmoglein-2 (Dsg2) p.D105E (p.D154E), recombinant extracellular cadherin domains 1-4 (EC1-4) (domain or fragment, thiol of the unique cysteine C447 (C496) covalently coupled to the maleimide of a cross-linker (maleimide-PEG-succinimidyl valerate 3,400 on the cantilever; NHS 3-maleimidopropionate on the gold substrate)) AWITAPVALREGEDLSKKNPIAKIHSDLAEERGLKITYKYTGKGITEPPFGIFVFNKDTGELNVTSILDREETPFFLLTGYALDARGNNVEKPLELRIKVLDINENEPVFTQDVFVGSVEELSAAHTLVMKINATDADEPNTLNSKISYRIVSLEPAYPPVFYLNKDTGEIYTTSVTLDREEHSSYTLTVEARDGNGEVTDKPVKQAQVQIRILDVNDNIPVVENKVLEGMVEENQVNVEVTRIKVFDADEIGSDNWLANFTFASGNEGGYFHIETDAQTNEGIVTLIKEVDYEEMKNLDFSVIVANKAAFHKSIRSKYKPTPIPIKVKVKNVKEGIHFKSSVISIYVSESMDRSSKGQIIGNFQAFDEDTGLPAHARYVKLEDRDNWISVDSVTSEIKLAKLPDFESRYVQNGTYTVKIVAISEDYPRKTITGTVLINVEDINDNCPTLIEPV | – | 817 | 3.39 | 0.3 | 361
Desmoglein-2 (Dsg2) wildtype, recombinant extracellular cadherin domains 1-4 (EC1-4) (domain or fragment, thiol of the unique cysteine C447 (C496) covalently coupled to the maleimide of a cross-linker (maleimide-PEG-succinimidyl valerate 3,400 on the cantilever; NHS 3-maleimidopropionate on the gold substrate)) AWITAPVALREGEDLSKKNPIAKIHSDLAEERGLKITYKYTGKGITEPPFGIFVFNKDTGELNVTSILDREETPFFLLTGYALDARGNNVEKPLELRIKVLDINDNEPVFTQDVFVGSVEELSAAHTLVMKINATDADEPNTLNSKISYRIVSLEPAYPPVFYLNKDTGEIYTTSVTLDREEHSSYTLTVEARDGNGEVTDKPVKQAQVQIRILDVNDNIPVVENKVLEGMVEENQVNVEVTRIKVFDADEIGSDNWLANFTFASGNEGGYFHIETDAQTNEGIVTLIKEVDYEEMKNLDFSVIVANKAAFHKSIRSKYKPTPIPIKVKVKNVKEGIHFKSSVISIYVSESMDRSSKGQIIGNFQAFDEDTGLPAHARYVKLEDRDNWISVDSVTSEIKLAKLPDFESRYVQNGTYTVKIVAISEDYPRKTITGTVLINVEDINDNCPTLIEPV | – | 412 | 0.33 | 2.99 | 7270
